Measurements published in patent US5885821.

How the values were obtained:
[1] = biological target: chimeric protein βGal-117S4HPPH34 (E. coli; human)
[2] = biological target: chimeric protein βGal-139S(FM)PPH84 (E. coli; human)

Kex2-660 (enzyme)
excision efficiency of hPTH(1-34) from the chimeric protein [1]: > 90%
recovery rate of hPTH(1-84) excised from the chimeric protein (HPLC) [2]: 75%
